Blank lines part the entries; values can stand above or below the molecule they belong to.
Legend:
AR [1] = experiment: AR transactivation MMTV-LUC assay in PC-3 cells with hRad9; format: cell-based, human; conditions: pCMV-AR, hRad9 termini
Protocol: (§1) PC-3, CWR22R, and LNCaP cell lines were maintained in […] supplemented with 10% fetal calf serum (FCS). Transient transfection for luciferase assays was carried out in 24-well plates (5×10^4 cells per well) using SuperFect as described previously (Lin, H. K., et al., Embo J 21:4037-48 (2002)). DNA mixtures in transfection assay were indicated in each figure. The total amount of transfected DNA was kept constant (1 μg) by adding the corresponding amounts of empty expression plasmids. After transfection, cells were cultured in […] supplemented with 5% charcoal-stripped FCS in the presence or absence of 10 nM dihydrotestosterone (DHT) for 18 h. Luciferase assays were performed as previously described (Yang, L., et al., J Biol Chem 278:16820-7 (2003)). In Western blotting assays, CWR22R or LNCaP cells were transfected by electroporation using 5×10^6 cells/0.4 ml of RPMI medium containing 2% FCS plus 9 μg of the indicated plasmids. 1 μg of EGFP expression vector was used for transfection efficiency. Electroporation was performed at 250 V and 950 μF using Gene Pulser II (Bio-Rad)
Target sequence in this assay (P10275 with tags, fused parts or gaps DEL79-80/DUP473-473): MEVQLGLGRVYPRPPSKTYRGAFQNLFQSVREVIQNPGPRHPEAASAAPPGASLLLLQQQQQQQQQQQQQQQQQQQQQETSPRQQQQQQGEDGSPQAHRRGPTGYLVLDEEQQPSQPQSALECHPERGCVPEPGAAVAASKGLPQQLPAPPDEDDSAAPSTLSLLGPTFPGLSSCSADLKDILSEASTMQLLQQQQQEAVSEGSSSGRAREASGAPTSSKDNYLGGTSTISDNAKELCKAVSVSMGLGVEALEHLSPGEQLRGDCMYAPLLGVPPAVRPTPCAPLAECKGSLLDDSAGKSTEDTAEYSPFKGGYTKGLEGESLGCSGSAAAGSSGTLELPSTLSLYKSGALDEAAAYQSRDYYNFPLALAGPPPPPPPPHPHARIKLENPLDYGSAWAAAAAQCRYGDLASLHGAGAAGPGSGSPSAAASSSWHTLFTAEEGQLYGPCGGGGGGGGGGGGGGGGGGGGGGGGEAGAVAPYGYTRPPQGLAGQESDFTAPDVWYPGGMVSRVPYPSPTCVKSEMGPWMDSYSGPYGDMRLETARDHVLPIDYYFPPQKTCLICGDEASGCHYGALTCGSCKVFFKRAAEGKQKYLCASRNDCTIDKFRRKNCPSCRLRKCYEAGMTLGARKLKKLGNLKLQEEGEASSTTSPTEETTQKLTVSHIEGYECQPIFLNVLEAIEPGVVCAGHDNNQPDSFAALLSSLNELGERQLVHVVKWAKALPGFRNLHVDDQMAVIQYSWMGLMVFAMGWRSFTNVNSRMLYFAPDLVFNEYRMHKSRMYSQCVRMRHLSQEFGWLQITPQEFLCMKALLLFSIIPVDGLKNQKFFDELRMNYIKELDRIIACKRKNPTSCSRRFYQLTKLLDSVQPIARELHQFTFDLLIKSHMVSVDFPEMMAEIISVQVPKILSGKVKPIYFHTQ

AR N/C interaction = experiment: Reconstituted AR transcription assay (AR N/C interaction) in PC-3 cells; format: cell-based, human; conditions: 10 nM DHT, MMTV-LUC
Protocol: as §1

AR [2] = experiment: Mammalian two-hybrid assay hRad9 / AR in PC-3 cells; format: cell-based, human; conditions: 10 nM DHT
Protocol: as §1
Target sequence in this assay (P10275 with tags, fused parts or gaps DEL79-80/DUP473-473): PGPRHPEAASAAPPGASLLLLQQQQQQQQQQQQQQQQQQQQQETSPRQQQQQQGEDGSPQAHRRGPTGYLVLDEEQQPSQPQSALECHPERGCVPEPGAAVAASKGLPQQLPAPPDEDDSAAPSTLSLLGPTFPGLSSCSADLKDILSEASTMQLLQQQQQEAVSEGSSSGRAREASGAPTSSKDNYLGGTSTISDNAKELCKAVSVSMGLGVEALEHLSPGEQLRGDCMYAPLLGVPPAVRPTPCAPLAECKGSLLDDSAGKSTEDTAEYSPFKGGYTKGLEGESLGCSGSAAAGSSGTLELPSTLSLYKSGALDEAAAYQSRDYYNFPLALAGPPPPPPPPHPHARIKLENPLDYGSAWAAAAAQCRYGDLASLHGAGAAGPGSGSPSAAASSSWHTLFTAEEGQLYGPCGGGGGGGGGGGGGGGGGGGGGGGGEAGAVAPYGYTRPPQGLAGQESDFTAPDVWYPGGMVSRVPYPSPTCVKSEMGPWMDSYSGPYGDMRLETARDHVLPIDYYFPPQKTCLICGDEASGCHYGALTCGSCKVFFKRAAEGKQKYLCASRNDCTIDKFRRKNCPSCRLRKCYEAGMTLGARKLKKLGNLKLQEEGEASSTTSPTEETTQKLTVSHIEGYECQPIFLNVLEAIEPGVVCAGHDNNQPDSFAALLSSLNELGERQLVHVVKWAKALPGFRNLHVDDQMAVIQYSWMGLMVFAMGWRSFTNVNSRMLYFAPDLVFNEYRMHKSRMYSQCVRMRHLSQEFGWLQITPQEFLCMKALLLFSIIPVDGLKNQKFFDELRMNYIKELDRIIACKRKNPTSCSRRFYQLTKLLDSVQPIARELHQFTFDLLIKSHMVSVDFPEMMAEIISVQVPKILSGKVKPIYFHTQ

AR [3] = experiment: AR transactivation luciferase assay in LNCaP cells with GSK3β; format: cell-based, human; conditions: MMTV-Luc, DHT
Protocol: (§2) COS-1 and PC-3 cells were maintained in early to mid-log phase in DMEM medium, supplemented with 10% fetal bovine serum (FBS), 50 units/ml penicillin and 50 μg/ml streptormnycin in incubators with humidified air and 5% carbon dioxide at 37° C. LNCaP cells were maintained in RPMI (GIBCO/BRL) medium. Twenty-four h prior to transfection, cells washed with Hanks' buffered saline solution, trypsinized, and seeded to be a density of 40-60% confluence for transfection. Cells in 12 well plates were refed with fresh medium 2 hours before transfection and transfected according to the “SuperFect Transfection” instructions (QIAGEN). After 2-3 h incubation, cells were treated with medium supplemented with charcoal-dextran treated FBS containing either ethanol or ligands. Cells were further incubated at 37° C. for 24 h, washed with PBS, and harvested.
Target sequence in this assay (P10275 whole entry T878A, the tested form may be a part): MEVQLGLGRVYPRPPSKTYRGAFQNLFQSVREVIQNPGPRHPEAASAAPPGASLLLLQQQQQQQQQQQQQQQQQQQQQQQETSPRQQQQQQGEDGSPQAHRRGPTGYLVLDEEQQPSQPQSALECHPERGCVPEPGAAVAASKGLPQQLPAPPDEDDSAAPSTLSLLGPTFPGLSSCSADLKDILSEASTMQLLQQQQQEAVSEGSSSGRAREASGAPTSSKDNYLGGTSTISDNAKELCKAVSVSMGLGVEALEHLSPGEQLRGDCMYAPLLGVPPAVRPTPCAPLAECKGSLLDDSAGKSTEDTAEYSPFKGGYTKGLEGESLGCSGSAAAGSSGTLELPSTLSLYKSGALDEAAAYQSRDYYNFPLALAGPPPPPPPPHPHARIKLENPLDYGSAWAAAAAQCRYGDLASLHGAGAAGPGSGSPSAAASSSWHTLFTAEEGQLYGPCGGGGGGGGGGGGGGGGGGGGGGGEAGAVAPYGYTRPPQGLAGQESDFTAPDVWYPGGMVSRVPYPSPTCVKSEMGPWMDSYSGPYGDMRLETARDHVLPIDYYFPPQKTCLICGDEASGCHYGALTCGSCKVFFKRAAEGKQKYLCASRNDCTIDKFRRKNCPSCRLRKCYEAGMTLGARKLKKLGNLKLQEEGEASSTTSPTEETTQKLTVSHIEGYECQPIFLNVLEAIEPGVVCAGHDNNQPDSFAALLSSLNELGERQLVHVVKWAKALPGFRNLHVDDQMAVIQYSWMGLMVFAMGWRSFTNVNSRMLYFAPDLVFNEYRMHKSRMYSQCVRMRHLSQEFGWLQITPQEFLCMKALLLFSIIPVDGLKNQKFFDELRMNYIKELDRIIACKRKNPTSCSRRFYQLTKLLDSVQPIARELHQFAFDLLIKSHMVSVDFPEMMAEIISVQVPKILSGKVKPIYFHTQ

[4] = system: PSA expression in LNCaP cells; experiment: PSA promoter activity and PSA mRNA (Northern blot) in LNCaP cells with GSK3β; format: cell-based, human
Protocol: as §2

[5] = target: T1, human glucocorticoid receptor (hGR) (Homo sapiens, UniProt P04150); experiment: hGR transactivation luciferase assay in COS-1 cells with GSK3β; format: cell-based
T1 construct: expressed in transfected cells; host or cells: COS-1
T1 sequence (P04150 1-777): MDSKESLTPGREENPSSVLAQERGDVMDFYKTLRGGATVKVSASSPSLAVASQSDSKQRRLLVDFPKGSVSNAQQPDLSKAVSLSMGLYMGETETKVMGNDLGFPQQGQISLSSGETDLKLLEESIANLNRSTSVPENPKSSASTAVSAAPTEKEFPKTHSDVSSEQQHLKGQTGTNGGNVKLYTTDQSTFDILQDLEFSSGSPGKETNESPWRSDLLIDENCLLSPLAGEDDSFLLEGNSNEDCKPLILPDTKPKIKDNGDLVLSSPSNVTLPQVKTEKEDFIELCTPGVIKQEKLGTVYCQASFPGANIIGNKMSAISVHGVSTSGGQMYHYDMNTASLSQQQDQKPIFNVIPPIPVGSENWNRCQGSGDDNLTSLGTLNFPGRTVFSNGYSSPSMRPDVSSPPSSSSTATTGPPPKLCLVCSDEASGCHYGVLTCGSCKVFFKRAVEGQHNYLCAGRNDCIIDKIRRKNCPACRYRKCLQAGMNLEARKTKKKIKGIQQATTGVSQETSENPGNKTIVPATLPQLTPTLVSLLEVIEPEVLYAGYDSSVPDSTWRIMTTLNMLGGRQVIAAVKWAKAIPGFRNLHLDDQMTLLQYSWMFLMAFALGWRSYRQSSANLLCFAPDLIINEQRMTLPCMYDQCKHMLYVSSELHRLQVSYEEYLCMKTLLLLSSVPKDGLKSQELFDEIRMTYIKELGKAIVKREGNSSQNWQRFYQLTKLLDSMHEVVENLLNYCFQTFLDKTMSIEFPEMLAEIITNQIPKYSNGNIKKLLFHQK
Protocol: as §2

AR [6] = experiment: In vitro kinase assay of GSK3β on AR fragments; format: biochemical, human; conditions: 30 min at 30° C.
AR [7] = experiment: GST pull-down assay GSK3β / AR; format: binding, human; conditions: presence or absence of DHT
Protocol: 5 μl of in vitro-translated β5S]-labeled AR was incubated with the GST or GST-GSK3β bound to glutathione-Sepharose beads in a pull-down assay. After extensive washing, bead-bound protein complexes were loaded onto 8% SDS-PAGE and analyzed by Phosphorlmager. The input represents 20% amount of [^35S]-labeled proteins used in each pull-down assay. […] COS-1 cells were solubilized in RIPA buffer containing 0.5% NP-40 and protease inhibitors. Immunoprecipitation was performed using mouse HA antibody (1:1000) or normal mouse IgG (N-IgG) and then analyzed by Western blot with anti-AR NH27 (1:1000) or anti-GSK3β (1:1000) antibodies, followed by incubation with AP conjugate goat anti-rabbit or rabbit anti-mouse IgM antibodies, and visualized with AP conjugate kit (Bio-Rad).
Target sequence in this assay (P49841 whole entry partner, the tested form may be a part): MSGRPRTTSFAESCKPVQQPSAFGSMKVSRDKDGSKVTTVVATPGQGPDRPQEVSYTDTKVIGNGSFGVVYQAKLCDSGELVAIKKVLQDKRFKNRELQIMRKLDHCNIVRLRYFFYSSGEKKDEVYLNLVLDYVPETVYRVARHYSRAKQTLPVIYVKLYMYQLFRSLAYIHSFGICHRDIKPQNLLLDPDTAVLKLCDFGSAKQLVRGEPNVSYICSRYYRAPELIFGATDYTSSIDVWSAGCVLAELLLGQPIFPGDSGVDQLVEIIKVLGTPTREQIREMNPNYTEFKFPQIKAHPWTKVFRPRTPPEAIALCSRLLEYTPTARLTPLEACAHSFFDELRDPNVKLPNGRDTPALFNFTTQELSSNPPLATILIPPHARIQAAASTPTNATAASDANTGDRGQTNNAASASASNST

AR AF-1 / AF-2 = experiment: GAL4-ARN / GAL4-AR-LBD pG5-Luc reporter assay in COS-1 cells; format: cell-based, human
Protocol: as §2

AR [8] = experiment: AR transactivation luciferase assay in COS-1 cells with GSK3β; format: cell-based, human
Protocol: as §2

AR [9] = experiment: AR expression by immunoblot in LNCaP cells transfected with GSK3β; format: cell-based, human; conditions: pCMV-GSK3β vs pCMV vector
Target sequence in this assay (P10275 whole entry T878A, the tested form may be a part): as the sequence (P10275 whole entry T878A, the tested form may be a part) above

[10] = system: MAPK (GAL4-Elk1 transactivation); experiment: GAL4-Elk1 reporter gene assay (MAPK activation) in MCF7 cells; format: cell-based, human; conditions: AR-FL-activated, pG5-luc reporter
Protocol: Cells were plated in 96-well plates and plasmids at 0.5 μg per well were transfected into cells using SuperFect (Qiagen). The medium was changed 2 h after transfection and cells were cultured in the medium containing 10% CDS-FBS or 0.2% HI-FBS for 16 h, followed by treatment with 50 ng/ml EGF, 100 ng/ml IGF-1,100 ng/ml HRG-α 0.1 nM E2, or 1 nM DHT for another 16 h. Cells were then harvested and the luciferase activity was analyzed using Dual-Luciferase Reporter Assay System (Promega). 5 ng pRL-TK per well was used as internal control.

Chain of AR N/C interaction (P10275 557-920): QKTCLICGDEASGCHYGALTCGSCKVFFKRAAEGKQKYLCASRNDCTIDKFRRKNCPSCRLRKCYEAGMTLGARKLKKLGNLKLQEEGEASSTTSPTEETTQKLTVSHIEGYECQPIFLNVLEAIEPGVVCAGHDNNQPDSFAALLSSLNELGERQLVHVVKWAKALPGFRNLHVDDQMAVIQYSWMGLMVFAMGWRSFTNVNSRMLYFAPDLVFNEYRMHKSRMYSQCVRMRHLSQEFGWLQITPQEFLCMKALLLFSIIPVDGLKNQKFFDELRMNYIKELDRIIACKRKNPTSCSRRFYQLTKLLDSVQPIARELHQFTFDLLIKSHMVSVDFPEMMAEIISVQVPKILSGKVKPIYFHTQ

B1: C-terminus of hRad9: hRad9 aa 269-391 (protein, UniProt Q99638 269-391, looked up, fragment)
chain: DSHSQDLGSPERHQPVPQLQAHSTPHPDDFANDDIDSYMIAMETTIGNEGSRVLPSISLSPGPQPPKSPGPHSEEEDEAEPSTVPGTPPPKKFRSLFFGSILAPVRSPQGPSPVLAEDSEGEG
- AR-mediated transactivation (full length AR) (AR [1]): suppressed
- interaction between AR N- and C-terminus (AR N/C interaction): potently inhibit
- interaction with AR (AR [2]): strong interaction

B2: N-hRad9: PCNA-like domain of hRad9, aa 1-270 (protein)
chain: MKCLVTGGNVKVLGKAVHSLSRIGDELYLEPLEDGLSLRTVNSSRSAYACFLFAPLFFQQYQAATPGQDLLRCKILMKSFLSVFRSLAMLEKTVEKCCISLNGRSSRLVVQLHCKFGVRKTHNLSFQDCESLQAVFDPASCPHMLRAPARVLGEAVLPFSPALAEVTLGIGRGRRVILRSYHEEEADSTAKAMVTEMCLGEEDFQQLQAQEGVAITFCLKEFRGLLSFAESANLNLSIHFDAPGRPAIFTIKDSLLDGHFVLATLSDTDS
- interaction between AR N- and C-terminus (AR N/C interaction): no effect
- interaction with AR (AR [2]): did not

- hGR transactivation [5]: failed to inhibit
- phosphorylation of GST-AR38-560 (N-terminus) (AR [6]): significantly phosphorylated
- phosphorylation of GST-AR-DBD-LBD or 6His-AR-LBD (AR [6]): slightly phosphorylated
- binding of 35S-methionine-labeled AR to GST-GSK3β (AR [7]): bind specifically
B3: GSK3β: glycogen synthase kinase 3β, serine/threonine protein kinase (SEQ ID NO:5), wild type (protein)
chain: MSGRPRTTSFAESCKPVQQPSAFGSMKVSRDKDGSKVTTVVATPGQGPDRPQEVSYTDTKVIGNGSFGVVYQAKLCDSGELVAIKKVLQDKRFKNRELQIMRKLDHCNIVRLRYFFYSSGEKKDEVYLNLVLDYVPETVYRVARHYSRAKQTLPVIYVKLYMYQLFRSLAYIHSFGICHRDIKPQNLLLDPDTAVLKLCDFGSAKQLVRGEPNVSYICSRYYRAPELIFGATDYTSSIDVWSAGCVLAELLLGQPIFPGDSGVDQLVEIIKVLGTPTREQIREMNPNYTEFKFPQIKAHPWTKDSSGTGHFTSGVRVFRPRTPPEAIALCSRLLEYTPTARLTPLEACAHSFFDELRDPNVKLPNGRDTPALFNFTTQELSSNPPLATILIPPHARIQAAASTPTNATAASDANTGDRGQTNNAASASASNST
- activity of AR (AR [3]): reduced
- expression of PSA mRNA ([4]; Northern blot, 10 nM DHT): reduced
- DHT-mediated induction of transcription from the PSA promoter ([4]; PSA-luc): repressed
- activity of GAL4-AR-LBD (AR AF-1 / AF-2): did not influence
- constitutive transcriptional activity of GAL4-ARN (AR AF-1 / AF-2): inhibited
- AR-mediated transcription of the luciferase reporter reduced by (AR [8]; ARE4-Luc, 10 nM DHT): about 40%
- DHT-mediated AR transactivation / AR transcriptional activity (AR [8]; MMTV-Luc): inhibits
- endogenous expression of AR (AR [9]): little change

B4: CL-100: MAPK phosphatase-1 (protein, UniProt P28562 1-367, looked up)
Dual specificity protein …: MVMEVGTLDAGGLRALLGERAAQCLLLDCRSFFAFNAGHIAGSVNVRFSTIVRRRAKGAMGLEHIVPNAELRGRLLAGAYHAVVLLDERSAALDGAKRDGTLALAAGALCREARAAQVFFLKGGYEAFSASCPELCSKQSTPMGLSLPLSTSVPDSAESGCSSCSTPLYDQGGPVEILPFLYLGSAYHASRKDMLDALGITALINVSANCPNHFEGHYQYKSIPVEDNHKADISSWFNEAIDFIDSIKNAGGRVFVHCQAGISRSATICLAYLMRTNRVKLDEAFEFVKQRRSIISPNFSFMGQLLQFESQVLAPHCSAEAGSPAMAVLDRGTSTTTVFNFPVSIPVHSTNSALSYLQSPITTSPSC
- AR-activated GAL4-Elk1 activity [10]: diminished

From patent publication US20080050387A1, “Non-Androgen Dependent Roles for Androgen Receptor and Non-Androgen Related Inhibitors of Androgen Receptor” (priority 2003, published 2008)
